Test results taken from article PMC8298264, “Function of cofactor Akirin2 in the regulation of gene expression in model human neutrophil-like HL60 cells” (Bioscience Reports, 2021).

B1: sp¦P13804¦ETFA_HUMAN (protein, UniProt P13804 20-333, looked up)
Electron transfer …: QSTLVIAEHANDSLAPITLNTITAATRLGGEVSCLVAGTKCDKVAQDLCKVAGIAKVLVAQHDVYKGLLPEELTPLILATQKQFNYTHICAGASAFGKNLLPRVAAKLEVAPISDIIAIKSPDTFVRTIYAGNALCTVKCDEKVKVFSVRGTSFDAAATSGGSASSEKASSTSPVEISEWLDQKLTKSDRPELTGAKVVVSGGRGLKSGENFKLLYDLADQLHAAVGASRAAVDAGFVPNDMQVGQTGKIVAPELYIAVGISGAIQHLAGMKDSKTIVAINKDPEAPIFQVADYGIVADLFKVVPEMTEILKKK
B2: sp¦Q9NVP1¦DDX18_HUMAN (protein, UniProt Q9NVP1 1-670, looked up)
ATP-dependent RNA helicase …: MSHLPMKLLRKKIEKRNLKLRQRNLKFQGASNLTLSETQNGDVSEETMGSRKVKKSKQKPMNVGLSETQNGGMSQEAVGNIKVTKSPQKSTVLTNGEAAMQSSNSESKKKKKKKRKMVNDAEPDTKKAKTENKGKSEEESAETTKETENNVEKPDNDEDESEVPSLPLGLTGAFEDTSFASLCNLVNENTLKAIKEMGFTNMTEIQHKSIRPLLEGRDLLAAAKTGSGKTLAFLIPAVELIVKLRFMPRNGTGVLILSPTRELAMQTFGVLKELMTHHVHTYGLIMGGSNRSAEAQKLGNGINIIVATPGRLLDHMQNTPGFMYKNLQCLVIDEADRILDVGFEEELKQIIKLLPTRRQTMLFSATQTRKVEDLARISLKKEPLYVGVDDDKANATVDGLEQGYVVCPSEKRFLLLFTFLKKNRKKKLMVFFSSCMSVKYHYELLNYIDLPVLAIHGKQKQNKRTTTFFQFCNADSGTLLCTDVAARGLDIPEVDWIVQYDPPDDPKEYIHRVGRTARGLNGRGHALLILRPEELGFLRYLKQSKVPLSEFDFSWSKISDIQSQLEKLIEKNYFLHKSAQEAYKSYIRAYDSHSLKQIFNVNNLNLPQVALSFGFKVPPFVDLNVNSNEGKQKKRGGGGGFGYQKTKKVEKSKIFKHISKKSSDSRQFSH
B3: sp¦Q9HAV0¦GBB4_HUMAN (protein, UniProt Q9HAV0 2-340, looked up)
Guanine nucleotide-binding …: SELEQLRQEAEQLRNQIQDARKACNDATLVQITSNMDSVGRIQMRTRRTLRGHLAKIYAMHWGYDSRLLVSASQDGKLIIWDSYTTNKMHAIPLRSSWVMTCAYAPSGNYVACGGLDNICSIYNLKTREGNVRVSRELPGHTGYLSCCRFLDDSQIVTSSGDTTCALWDIETAQQTTTFTGHSGDVMSLSLSPDMRTFVSGACDASSKLWDIRDGMCRQSFTGHVSDINAVSFFPNGYAFATGSDDATCRLFDLRADQELLLYSHDNIICGITSVAFSKSGRLLLAGYDDFNCNVWDTLKGDRAGVLAGHDNRVSCLGVTDDGMAVATGSWDSFLRIWN
B4: sp¦O43390¦HNRPR_HUMAN (protein, UniProt O43390 2-633, looked up)
Heterogeneous nuclear …: ANQVNGNAVQLKEEEEPMDTSSVTHTEHYKTLIEAGLPQKVAERLDEIFQTGLVAYVDLDERAIDALREFNEEGALSVLQQFKESDLSHVQNKSAFLCGVMKTYRQREKQGSKVQESTKGPDEAKIKALLERTGYTLDVTTGQRKYGGPPPDSVYSGVQPGIGTEVFVGKIPRDLYEDELVPLFEKAGPIWDLRLMMDPLSGQNRGYAFITFCGKEAAQEAVKLCDSYEIRPGKHLGVCISVANNRLFVGSIPKNKTKENILEEFSKVTEGLVDVILYHQPDDKKKNRGFCFLEYEDHKSAAQARRRLMSGKVKVWGNVVTVEWADPVEEPDPEVMAKVKVLFVRNLATTVTEEILEKSFSEFGKLERVKKLKDYAFVHFEDRGAAVKAMDEMNGKEIEGEEIEIVLAKPPDKKRKERQAARQASRSTAYEDYYYHPPPRMPPPIRGRGRGGGRGGYGYPPDYYGYEDYYDDYYGYDYHDYRGGYEDPYYGYDDGYAVRGRGGGRGGRGAPPPPRGRGAPPPRGRAGYSQRGAPLGPPRGSRGGRGGPAQQQRGRGSRGSRGNRGGNVGGKRKADGYNQPDSKRRQTNNQQNWGSQPIAQQPLQQGGDYSGNYGYNNDNQEFYQDTYGQQWK
B5: sp¦Q9H2U2¦IPYR2_HUMAN (protein, UniProt Q9H2U2 33-334, looked up)
Inorganic pyrophosphatase 2, …: ALYHTEERGQPCSQNYRLFFKNVTGHYISPFHDIPLKVNSKEENGIPMKKARNDEYENLFNMIVEIPRWTNAKMEIATKEPMNPIKQYVKDGKLRYVANIFPYKGYIWNYGTLPQTWEDPHEKDKSTNCFGDNDPIDVCEIGSKILSCGEVIHVKILGILALIDEGETDWKLIAINANDPEASKFHDIDDVKKFKPGYLEATLNWFRLYKVPDGKPENQFAFNGEFKNKAFALEVIKSTHQCWKALLMKKCNGGAINCTNVQISDSPFRCTQEEARSLVESVSSSPNKESNEEEQVWHFLGK
B6: sp¦P22102¦PUR2_HUMAN (protein, UniProt P22102 2-1010, looked up)
Trifunctional purine …: AARVLIIGSGGREHTLAWKLAQSHHVKQVLVAPGNAGTACSEKISNTAISISDHTALAQFCKEKKIEFVVVGPEAPLAAGIVGNLRSAGVQCFGPTAEAAQLESSKRFAKEFMDRHGIPTAQWKAFTKPEEACSFILSADFPALVVKASGLAAGKGVIVAKSKEEACKAVQEIMQEKAFGAAGETIVIEELLDGEEVSCLCFTDGKTVAPMPPAQDHKRLLEGDGGPNTGGMGAYCPAPQVSNDLLLKIKDTVLQRTVDGMQQEGTPYTGILYAGIMLTKNGPKVLEFNCRFGDPECQVILPLLKSDLYEVIQSTLDGLLCTSLPVWLENHTALTVVMASKGYPGDYTKGVEITGFPEAQALGLEVFHAGTALKNGKVVTHGGRVLAVTAIRENLISALEEAKKGLAAIKFEGAIYRKDVGFRAIAFLQQPRSLTYKESGVDIAAGNMLVKKIQPLAKATSRSGCKVDLGGFAGLFDLKAAGFKDPLLASGTDGVGTKLKIAQLCNKHDTIGQDLVAMCVNDILAQGAEPLFFLDYFSCGKLDLSVTEAVVAGIAKACGKAGCALLGGETAEMPDMYPPGEYDLAGFAVGAMERDQKLPHLERITEGDVVVGIASSGLHSNGFSLVRKIVAKSSLQYSSPAPDGCGDQTLGDLLLTPTRIYSHSLLPVLRSGHVKAFAHITGGGLLENIPRVLPEKLGVDLDAQTWRIPRVFSWLQQEGHLSEEEMARTFNCGVGAVLVVSKEQTEQILRDIQQHKEEAWVIGSVVARAEGSPRVKVKNLIESMQINGSVLKNGSLTNHFSFEKKKARVAVLISGTGSNLQALIDSTREPNSSAQIDIVISNKAAVAGLDKAERAGIPTRVINHKLYKNRVEFDSAIDLVLEEFSIDIVCLAGFMRILSGPFVQKWNGKMLNIHPSLLPSFKGSNAHEQALETGVTVTGCTVHFVAEDVDAGQIILQEAVPVKRGDTVATLSERVKLAEHKIFPAALQLVASGTVQLGENGKICWVKEE
B7: sp¦P30044¦PRDX5_HUMAN (protein, UniProt P30044 53-214, looked up)
Peroxiredoxin-5, mitochondrial: MAPIKVGDAIPAVEVFEGEPGNKVNLAELFKGKKGVLFGVPGAFTPGCSKTHLPGFVEQAEALKAKGVQVVACLSVNDAFVTGEWGRAHKAEGKVRLLADPTGAFGKETDLLLDDSLVSIFGNRRLKRFSMVVQDGIVKALNVEPDGTGLTCSLAPNIISQL
B8: sp¦P04844¦RPN2_HUMAN (protein, UniProt P04844 23-631, looked up)
Dolichyl-diphosphooligosacchar …: LTPTHYLTKHDVERLKASLDRPFTNLESAFYSIVGLSSLGAQVPDAKKACTYIRSNLDPSNVDSLFYAAQASQALSGCEISISNETKDLLLAAVSEDSSVTQIYHAVAALSGFGLPLASQEALSALTARLSKEETVLATVQALQTASHLSQQADLRSIVEEIEDLVARLDELGGVYLQFEEGLETTALFVAATYKLMDHVGTEPSIKEDQVIQLMNAIFSKKNFESLSEAFSVASAAAVLSHNRYHVPVVVVPEGSASDTHEQAILRLQVTNVLSQPLTQATVKLEHAKSVASRATVLQKTSFTPVGDVFELNFMNVKFSSGYYDFLVEVEGDNRYIANTVELRVKISTEVGITNVDLSTVDKDQSIAPKTTRVTYPAKAKGTFIADSHQNFALFFQLVDVNTGAELTPHQTFVRLHNQKTGQEVVFVAEPDNKNVYKFELDTSERKIEFDSASGTYTLYLIIGDATLKNPILWNVADVVIKFPEEEAPSTVLSQNLFTPKQEIQHLFREPEKRPPTVVSNTFTALILSPLLLLFALWIRIGANVSNFTFAPSTIIFHLGHAAMLGLMYVYWTQLNMFQTLKYLAILGSVTFLAGNRMLAQQAVKRTAH
B9: sp¦P00505¦AATM_HUMAN (protein, UniProt P00505 30-430, looked up)
Aspartate aminotransferase, …: SSWWTHVEMGPPDPILGVTEAFKRDTNSKKMNLGVGAYRDDNGKPYVLPSVRKAEAQIAAKNLDKEYLPIGGLAEFCKASAELALGENSEVLKSGRFVTVQTISGTGALRIGASFLQRFFKFSRDVFLPKPTWGNHTPIFRDAGMQLQGYRYYDPKTCGFDFTGAVEDISKIPEQSVLLLHACAHNPTGVDPRPEQWKEIATVVKKRNLFAFFDMAYQGFASGDGDKDAWAVRHFIEQGINVCLCQSYAKNMGLYGERVGAFTMVCKDADEAKRVESQLKILIRPMYSNPPLNGARIAAAILNTPDLRKQWLQEVKVMADRIIGMRTQLVSNLKKEGSTHNWQHITDQIGMFCFTGLKPEQVERLIKEFSIYMTKDGRISVAGVTSSNVGYLAHAIHQVTK
B10: sp¦Q6NVY1¦HIBCH_HUMAN (protein, UniProt Q6NVY1 33-386, looked up)
3-hydroxyisobutyryl-CoA …: DAAEEVLLEKKGCTGVITLNRPKFLNALTLNMIRQIYPQLKKWEQDPETFLIIIKGAGGKAFCAGGDIRVISEAEKAKQKIAPVFFREEYMLNNAVGSCQKPYVALIHGITMGGGVGLSVHGQFRVATEKCLFAMPETAIGLFPDVGGGYFLPRLQGKLGYFLALTGFRLKGRDVYRAGIATHFVDSEKLAMLEEDLLALKSPSKENIASVLENYHTESKIDRDKSFILEEHMDKINSCFSANTVEEIIENLQQDGSSFALEQLKVINKMSPTSLKITLRQLMEGSSKTLQEVLTMEYRLSQACMRGHDFHEGVRAVLIDKDQSPKWKPADLKEVTEEDLNNHFKSLGSSDLKF

Tested on: human HL60 cells
Experiment: SWATH-MS proteomics, differential protein representation, akirin2 KO vs WT HL60 cells
Type: cell-based
Conditions: SWATH-MS, akirin2 KO vs WT HL60 cells; sheet "Under-represented in KO"
In short: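 First, proteins from wild-type and knockout cells are digested with trypsin by FASP. Next, pooled IDA runs generate a reference ion library. Then six samples of 5 µg each are acquired by data-independent SWATH, and protein areas are normalized to the summed area of all detected proteins.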

Molecule | Fold Change | Log (Fold Change)
B1 | 0.7634 | -0.1173
B2 | 0.7616 | -0.1182
B3 | 0.7672 | -0.1151
B4 | 0.7565 | -0.1212
B5 | 0.76 | -0.1192
B6 | 0.7577 | -0.1205
B7 | 0.764 | -0.1169
B8 | 0.7588 | -0.1199
B9 | 0.7669 | -0.1152
B10 | 0.7678 | -0.1147
